# B1: Conjugate P (FOLR1-directed site-specific antibody-drug conjugate; IgG antibody with VH region SEQ ID NO: 362 and VL region SEQ ID NO: 367, conjugate formula … (antibody, V domains shown)
# VH: EVQLVESGGGLVQPGGSLRLSCAASGFNIRTQSIHWVRQAPGKGLEWIGDIFPIDGITDYADSVKGRFTISADTSKNTAYLQMNSLRAEDTAVYYCARGSWSWPSGMDYYLDYWGQGTLVTVSS
# VL: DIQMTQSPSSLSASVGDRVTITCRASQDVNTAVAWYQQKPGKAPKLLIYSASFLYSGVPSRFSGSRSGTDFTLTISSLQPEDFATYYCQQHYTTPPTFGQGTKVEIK
# modifications: para-azidomethylphenylalanine residues substituting for Y180 and F404 (printed as 'of each VH region'; elsewhere given as heavy chain positions), each linked to the hemiasterlin linker-payload of conjugate formula P (n=4)
# Biological target: folate receptor alpha (FOLR1) (human, UniProt P15328 25-234)
# Assay: cell-based or functional assay
# Chain of folate receptor alpha (FOLR1) (P15328 25-234 limits assumed): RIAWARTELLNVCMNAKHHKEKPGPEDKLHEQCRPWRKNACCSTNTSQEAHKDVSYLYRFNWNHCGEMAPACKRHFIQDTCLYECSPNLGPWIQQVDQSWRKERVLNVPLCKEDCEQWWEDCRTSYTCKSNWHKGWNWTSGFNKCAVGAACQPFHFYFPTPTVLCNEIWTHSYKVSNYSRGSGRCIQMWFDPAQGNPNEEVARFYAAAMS
binder,measurement,value
B1,in vitro cytotoxicity IC50 against CBF/GLIS-transduced CB HPSCs (which upregulate FOLR1),4.2 nM
same,in vitro cytotoxicity IC50 against MV4;11 AML cell line engineered to express FOLR1 (MV4;11 FOLR1+),0.1 nM
